Seven molecules from patent publication US20060234285A1 (Human Genome Sciences, published 2006) can be followed below.

First the molecules themselves.
B1: TNF-gamma-beta, full length, on transfected cells (ligand, human, UniProt O95150 1-251, looked up)
chain: MAEDLGLSFGETASVEMLPEHGSCRPKARSSSARWALTCCLVLLPFLAGLTTYLLVSQLRAQGEACVQFQALKGQEFAPSHQQVYAPLRADGDKPRAHLTVVRQTPTQHFKNQFPALHWEHELGLAFTKNRMNYTNKFLLIPESGDYFIYSQVTFRGMTSECSEIRQAGRPNKPDSITVVITKVTDSYPEPTQLLMGTKSVCEVGSNWFQPIYLGAMFSLQEGDKLMVNVSDISLVDYTKEDKTFFGAFLL
notes: whole, on cells; also called TL1β
B2: Human LIGHT protein, natural secreted form (aa83-240) (ligand, UniProt O43557 83-240, looked up)
chain: LIQERRSHEVNPAAHLTGANSSLTGSGGPLLWETQLGLAFLRGLSYHDGALVVTKAGYYYIYSKVQLGGVGCPLGLASTITHGLYKRTPRYPEELELLVSQQSPCGRATSSSRVWWDSSFLGGVVHLEAGEKVVVRVLDERLVRLRDGTRSYFGAFMV
notes: range 83-240; also called soluble LIGHT
B3: Full-length human TR6 (without Fc) (receptor)
chain: VAETPTYPWRDAETGERLVCAQCPPGTFVQRPCRRDSPTTCGPCPPRHYTQFWNYLERCRYCNVLCGEREEEARACHATHNRACRCRTGFFAHAGFCLEHASCPPGAGVIAPGTPSQNTQCQPCPPGTFSASSSSSEQCQPHRNCTALGLALNVPGSSSHDTLCTSCTGFPLSTRVPGAEECERAVIDFVAFQDISIKRLQRLLQALEAPEGWGPTPRAGRAALQLKLRRRLTELLGAQDGALLVRLLQALRVARMPGLERSVRERFLPVH
notes: Full-length cDNA expressed in Sf9 cells with the natural leader; also called TR6 non-Fc; TR6-non-Fc

The target in test [1] is T1, TNFR-6 alpha-Fc fusion protein (full length TNFR-6 alpha, amino acids 1-300 of SEQ ID NO:2, fused to the Fc … (human, UniProt O95407 30-300)).
T1 construct: Construct M1-H300 fused to Fc (pA2Fc:TR6, baculovirus/Sf9); the secreted protein starts at Val 30 and is a disulfide-linked dimer; also called TNFR6-Fc; TR6-Fc
T1 sequence: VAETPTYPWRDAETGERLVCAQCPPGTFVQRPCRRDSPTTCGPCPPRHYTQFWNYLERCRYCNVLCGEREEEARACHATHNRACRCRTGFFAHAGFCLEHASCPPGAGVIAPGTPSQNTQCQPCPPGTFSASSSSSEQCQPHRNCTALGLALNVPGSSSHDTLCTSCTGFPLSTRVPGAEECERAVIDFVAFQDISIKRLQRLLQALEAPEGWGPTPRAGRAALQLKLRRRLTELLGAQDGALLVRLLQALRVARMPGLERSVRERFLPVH
In words: FACS on transfected cells.

The target in the next test is T2, DR6-Fc (UniProt O75509 42-349, limits assumed).
T2 construct: extracellular domain
T2 sequence (looked up): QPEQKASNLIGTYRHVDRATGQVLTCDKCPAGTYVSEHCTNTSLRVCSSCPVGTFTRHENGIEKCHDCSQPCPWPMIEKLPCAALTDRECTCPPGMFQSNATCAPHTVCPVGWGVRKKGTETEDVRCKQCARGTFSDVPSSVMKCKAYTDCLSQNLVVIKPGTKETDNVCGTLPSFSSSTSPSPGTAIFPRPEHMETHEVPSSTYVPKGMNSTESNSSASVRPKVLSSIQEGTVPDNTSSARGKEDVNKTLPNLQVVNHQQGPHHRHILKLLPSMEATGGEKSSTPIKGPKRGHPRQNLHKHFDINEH
In words: flow cytometry on HEK293F cells expressing full length TNF-gamma-beta. The protocol: (§1) One million cells, in 0.1 ml of FACS buffer (PBS, 0.1% BSA, 0.1% NaN₃), were incubated with 0.1-1 microgram of protein or antibody at RT for 15 min. The cells were washed with 3 ml of FACS buffer, reacted with biotinylated primary antibody, and stained with PE-conjugated secondary antibody at RT for 15 min. Cells were then washed again, resuspended in 0.5 microgram/ml of propidium iodide, and live cells were gated and analyzed on a FACScan using the CellQuest software (BD Biosciences).
On the technique in general: In flow cytometry, cells or beads pass a laser one at a time.

For test [2], the target named is T1, TNFR-6 alpha-Fc fusion protein (full …). In words: BIAcore, receptor immobilized, LIGHT in flow; TR6-Fc. The protocol: (§2) The amount of bound protein was determined during washing of the flow cell with HBS buffer (10 mM HEPES, pH 7.4, 150 mM NaCl, 3.4 mM EDTA, 0.005% Surfactant P20). The flow cell surface was regenerated by washing off the bound proteins with 20 microliters of 10 mM glycine-HCl pH 2.3. […] The on- and off-rates were determined according a kinetic evaluation program in the BiaEvaluation 3 software using a 1:1 binding model and the global analysis method.

The target of test [3] is B3. As to the kind of experiment: BIAcore; TR6 without Fc. The protocol:
as §2
A general note: In SPR one partner is held on a chip, and binding of the other changes the refractive index at the surface.

Test [4] has as its target T1, TNFR-6 alpha-Fc fusion protein (full …). In words: BIAcore; TR6-Fc. The protocol:
as §2

Test [5] deals with T3, Murine FasL on transfected murine L929 cells (murine, UniProt P41047 1-279).
T3 sequence (looked up): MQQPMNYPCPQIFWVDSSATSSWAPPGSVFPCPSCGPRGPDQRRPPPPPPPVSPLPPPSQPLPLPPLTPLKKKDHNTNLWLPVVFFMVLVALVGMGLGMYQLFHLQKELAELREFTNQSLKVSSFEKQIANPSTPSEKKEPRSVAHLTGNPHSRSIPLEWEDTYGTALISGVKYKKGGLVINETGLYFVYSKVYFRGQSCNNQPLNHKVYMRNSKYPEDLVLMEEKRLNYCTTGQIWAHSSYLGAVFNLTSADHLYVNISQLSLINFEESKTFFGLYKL
In words: cell-based or functional assay.

Test [6] deals with B1. As to the kind of experiment: flow cytometry competition, competitor DR3-Fc. The protocol: as §1
The target in test [7] is B2. In words: BIAcore.
For test [8], the target named is T4, Soluble human FLAG-FasL (synthesized at HGS) (human, UniProt P48023 130-281, limits assumed).
T4 construct: called trimerized in the kinetic BIAcore run; cross-linked with FLAG antibody in the cell assays; also called FasL-Flag; trimerized FLAG-FasL
T4 sequence (looked up): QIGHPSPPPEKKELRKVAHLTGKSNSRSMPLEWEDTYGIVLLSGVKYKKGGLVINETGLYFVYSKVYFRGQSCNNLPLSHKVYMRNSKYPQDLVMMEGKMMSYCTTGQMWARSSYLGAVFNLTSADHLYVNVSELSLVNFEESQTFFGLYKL
As to the kind of experiment: BIAcore.

Test [9] concerns the target T5, Recombinant, untagged TNF-gamma-beta protein (aa 72-251) from E. coli (human, UniProt O95150 72-251).
T5 construct: also called TL1β; recombinant TL1β protein
T5 sequence (looked up): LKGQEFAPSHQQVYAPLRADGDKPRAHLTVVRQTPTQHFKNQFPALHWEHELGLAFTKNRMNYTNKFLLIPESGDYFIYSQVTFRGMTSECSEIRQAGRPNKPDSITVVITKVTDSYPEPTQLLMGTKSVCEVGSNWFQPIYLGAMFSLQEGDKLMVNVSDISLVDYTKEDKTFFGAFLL
As to the kind of experiment: BIAcore, receptor-Fc immobilized. The protocol:
(§3) TNFR-Fc were covalently immobilized to the BIAcore sensor chip (CM5 chip) via amine groups using N-ethyl-N′-(dimethylaminopropyl) carbodiimide/N-hydroxysuccinimide chemistry. […] The amount of bound protein was determined during washing of the flow cell with HBS buffer (10 mM HEPES, pH 7.4, 150 mM NaCl, 3.4 mM EDTA, 0.005% Surfactant P20). The flow cell surface was regenerated by displacing bound protein by washing with 20 microliters of 10 mM glycine-HCl, pH 2.3. For kinetic analysis, the on and off rates were determined using the kinetic evaluation program in BIAevaluation 3 software using a 1:1 binding model and the global analysis method.

Test [10] concerns the target T5, Recombinant, untagged TNF-gamma-beta …. In words: BIAcore, three batches of TNF-gamma-beta; DR3-Fc, average of three batches. The protocol: as §3
For test [11] the target is unchanged. As to the kind of experiment: BIAcore, DR3-Fc immobilized, TNF-gamma-beta 3-370 nM in flow; DR3-Fc. The protocol:
as §3

In test [12] the target is T1, TNFR-6 alpha-Fc fusion protein (full …). In words: conclusion from flow cytometry.
Test [13] concerns the target B3. As to the kind of experiment: flow cytometry competition on activated human T cells.
In test [14] the target is B2. In words: BIAcore, TR2-Fc immobilized, LIGHT in flow; TR2-Fc. The protocol: as §2

For the molecule B1, the binding result in test [1] was “binds”; in the test with DR6-Fc, “no binding”.

Usually Kd stands for a measure of binding affinity in units of concentration. A word on the koff: it is a measure of how fast the partners let go of each other. As usually defined, the kon is a measure of how fast the partners come together. Regarding B2, the Kd in test [2] turned out to be 5.46 nM. In test [3], the Kd is 14.3 nM, the koff stood at 0.00483 s⁻¹ and the kon stood at 338000 M⁻¹ s⁻¹. In [4], this molecule showed a koff of 0.0023 s⁻¹ and a kon of 422000 M⁻¹ s⁻¹.

Regarding B3, the “IC50 of inhibition of killing of A20 target cells by murine FasL-transfected L929 cells” value in test [5] was about 1 ng/mL. The “molar ratio of TR6 to DR3-Fc at which no DR3-Fc binding was detected” value in [6] is 2 molar ratio (TR6:DR3-Fc). For the same molecule, the “fold higher off rate against TR6-Fc” value in [7] was about 2 fold. For the same molecule, the “fold reduction in affinity against TR6-Fc” value in test [8] was 4 fold.

B4: BCMA-Fc (Fc fusion, human, UniProt Q02223 1-54, looked up, not shown: a dimerising Fc or GST)
chain: MLQMAGQCSQNEYFDSLLHACIPCQLRCSSNTPPLTCQRYCNASVTNSVKGTNA
notes: Control surface in the BIAcore analysis
Turning to B4, the binding result in test [9] is “no binding (tested: 3-370 nM)”.

B5: DR3-Fc (extracellular domain of human DR3, aa 1-199, fused to the Fc domain of human IgG1) (Fc fusion, UniProt Q93038 25-199, looked up, not shown: a dimerising Fc or GST)
chain: QGGTRSPRCDCAGDFHKKIGLFCCRGCPAGHYLKAPCTEPCGNSTCLVCPQDTFLAWENHHNSECARCQACDEQASQVALENCSAVADTRCGCKPGWFVECQVSQCVSSSPFYCQPCLDCGALHRHTRLLCSRRDTDCGTCLPGFYEHGDGCVSCPTSTLGSCPERCAAVCGWRQ
notes: range 1-199
B5: the Kd in test [10] was 6.45 nM. For the same molecule, in test [11], the koff was 0.00413 s⁻¹ and the kon was determined as 639000 M⁻¹ s⁻¹.

B6: Human LIGHT, full length, on cells (stably transfected 293F cells; endogenous on activated human T cells) (ligand, UniProt O43557 1-240, looked up)
chain: MEESVVRPSVFVVDGQTDIPFTRLGRSHRRQSCSVARVGLGLLLLLMGAGLAVQGWFLLQLHWRLGEMVTRLPDGPAGSWEQLIQERRSHEVNPAAHLTGANSSLTGSGGPLLWETQLGLAFLRGLSYHDGALVVTKAGYYYIYSKVQLGGVGCPLGLASTITHGLYKRTPRYPEELELLVSQQSPCGRATSSSRVWWDSSFLGGVVHLEAGEKVVVRVLDERLVRLRDGTRSYFGAFMV
notes: whole, on cells; also called LIGHT-transfectants; cell membrane LIGHT
For the molecule B6, the binding result in test [12] and in [13] was “binds” each time.

B7: Human TR2-Fc (extracellular domain of TR2, aa1-192, fused to the Fc domain of human IgG1) (Fc fusion, not shown: a dimerising Fc or GST)
chain: LPSCKEDEYPVGSECCPKCSPGYRVKEACGELTGTVCEPCPPGTYIAHLNGLSKCLQCQMCDPAMGLRASRNCSRTENAVCGCSPGHFCIVQDGDHCAACRAYATSSPGQRVQKGGTESQDTLCQNCPPGTFSPNGTLEECQHQTKCSWLVTKA
notes: From CHO cells
For the molecule B7, the affinity in [14], expressed as Kd, was 4.56 nM.
